Source: the domain aggregation screens of Martell et al. (2025)

Assay: soluble fraction after stress (log2 fold change); higher = more stays soluble; pooled small domains, quantitative proteomics
Settings: stress: pH 4
Summary of the method: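 Values are on a log2 scale, where higher means more of the domain stayed soluble after pH 4 stress. They are fold changes in the soluble amount of each domain from pooled custom libraries, measured by high-throughput quantitative proteomics. The fold change is taken to reflect aggregation propensity.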

| Sequence | soluble fraction (log2) |
| --- | --- |
| HMGVMTGAEFVGNTVASVERNLIIDTLKHTMGNRTTAANILGISIRTLRNKLKQYQNEGFDIPE | 0.185 |
| HMGVPELHKGEIVQAVVEKVLGEGLLRVNLKGMTVEAATSLRLNPGQQLLLRSEGIENGRQVLR | 0.042 |
| HMGVQKGKDNALAVQQWIAERDATGDFGEYERRGIINRSALFDELGIPRSSMGSNDQIRQMIEAADVRWF | -0.663 |
| HMGVREIIVQFLEQFDKPKSVQEIVEYVLRYRNTTENSIRSTMYSGSQFRQFDNGYFGLSDKSYPNEYIYA | -1.25 |
| HMGVRLAPEVDRIPYGQMHPNLKKVKDLYEASYKAYVQALSSGNQALAKEKLEEFQSTKARYQRALSAYT | 0.195 |
| HMGVRVEVDAVTPPGAMASGSVVFSDGESKKWSVDQFGRLAMTGGAPDYKPSDQDVMEFQQQLEQSL | -0.57 |
| HMGVSAGQVRGLIRNLIAGEDKSKPLSDLALERELEKREIRISRRTVAKYRAELGIPNSDQRRYLP | 0.0779 |
| HMGVSLKEIQENLSLIDDAAQKLASGQGTVDDAVGMGNAGKDIYDNIEGYVSSPKEFINGVLSSV | -0.823 |
| HMGVSVNVQPAILDWAMQKAQMGNAGSSVIEMIAKWISGEKAPTFNQIEDVSKKISIPFGFFFLKEPPIE | -1.21 |
| HMGVTGYPNPTREHITWDDARRIEVWNAYGVPVADLRFARGVLDVAGWPVGTYVARIDGGRSVRFVVI | -0.663 |
| HMGVTVDEVHRNFESGMNVVHKKFGAGVVDSFDEGKIRINFDGVIKVFIADVLINSGMLESVSYTH | -0.922 |
| HMGWEDLVGKTAVVKVALAPVGMVFFRGEFWSAISETGRIEPGEEVTISRIDGLKLYVTKKRIM | ≥ 0.43 |
| HMGWEPTPVLVAARDISGGTVLDQDMLRVEAIPSRLVTPSIVRSDLLASVQDAKLLLPMKQGDLLNFNMLQ | -0.49 |
| HMGWVMLVIMSRGASEAQINAVVEKIRAAGLTEHLSKGIERTIIGAIGEERKLEPEVFELLPGVEQALHIV | -0.713 |
| HMGYDSYDADTIPKLKIGSIVEHPKFGEGSIISKAGAEVTIAFKIKGVKKINLEYTSIKVLK | 0.117 |
| HMGYGEQEQEAQKYLALHALMSQDPTLAKMYQAPNQYKLMSHVMEQNGIKNVNDYLTDPQQLP | -0.161 |
| HMGYKDIDKLSGVDLAIYRFIVEHDEQIPYMRVRELARGAHVSNSSVMRFIRKIGYDSFPEFKVSLRS | -0.322 |
| HMGYPGLGSIGSKPLGDLLFQSKLFVKTKREFAEFKMANNNIVWGRRTQYLVRNYPLSVMEVFL | -0.348 |
| HMHAGQIISQKIKESGISISHVAKHLKVQRATLYNLFEREVWPAHRLRTIEALLHIDLSDLYP | -1.52 |
| HMHANAALTPRQRLRLAQKIVDEEWTVAAAADYFRVSWPTAAKWARRYVELGEAGMADRSSRP | -0.641 |
| HMHDEKHHQLANEIARKWAALRGNRDFAAADELKNLAAEAGVELQATKQAVGQGALAKLKENFDPVKLEAL | 0.22 |
| HMHDLDALTGLSGEARSKVYEEGSVFVAGEMWSAKSDAVIPAGSSIRVVRREGFILVVEKDS | -1.97 |
| HMHDYTTIIGVIELRLNKISYDNVQKRYRIGRSGISLIMERYRDSGLSLDDLKQMPAEKVVNLIYPKD | -0.108 |

| Sequence | soluble fraction (log2) |
| --- | --- |
| HMHDYYDSIDAVTHDKSYESNLVFALKLGYTETQLQKALLKLGKKAREDQILEELIRIQKSSKA | ≥ 0.43 |
| HMHEGNWTLPNPMPIGTTLTLPEHSRLYISNLAGQRVFETSATSVEIPLLPKGTYLLRLETMNGHTTRKIL | 0.00873 |
| HMHELKIEKVAEAPNGAMRLLLSDGSEWVLGVKSWNRLNLSLEKILDVNVLRALEKESQYHLLRTKALEL | 0.171 |
| HMHFIMEYRIRAYVDELFESAPRTQRAYELKIELTQNLIDKYYALVSEGKSEQDAYNLTVMSIGDVREL | -0.959 |
| HMHGEAVVVPNVKGLPMRQAENEIYKQSLKAVAIDSSYVKGMPPGAILEQNPAGGSKVKKGRTVYLTINMD | 0.0278 |
| HMHGERVVTAGQTVRVVFTSNGLQVSSEGKALAAGAVGDDIQVRAASGKVIRGTVTGPGVVQV | ≥ 0.43 |
| HMHGLNQNKPIPIADIVNSVNNYLTSLGKKTITDNSVLSNLKKAAKYLNTAYNLVLRPDSLNMTVTLL | 0.22 |
| HMHIMINPDQLSPEQIQSIRTWAEEGLDLNAIQKRLHEDLNIKLTFMDTRFLLQDLDIRIRQPEPEPEAEQ | -0.67 |
| HMHINLEGLKKIDFRKKIGFLFGSEASGLSNKEVSYANYTLQIPTNINFKSLNLSHSLIIIAQFISSLLNS | 0.126 |
| HMHKIRRQTKITKSLLDQIEGIGSSRKKALLNHFGSAKAVGEAGETDLGTVKGISNSLAKKIYDFFHAT | 0.281 |
| HMHLDIGQLVQRILADIQVGKLADGQRKLPAEPVLMERYQVTRYTLRQALKQLSNMGYTYQMHGIGTFVRQ | -0.211 |
| HMHLKDEHGLTPKQRAFADEYVITLNATVSYKKIYSVKRDSVASTNGSRLLGNANVKAYIDKRLEE | 0.172 |
| HMHLKRQEAINLGAYLLGAELRIHRLSLEELGSERIDEMLAAINYKTLDDLLADIGLGNRPARFVARQLG | -1.65 |
| HMHLLGASIAAYRKKAGMTQEDLGRALFVSGQAVSRWERGGTPDSDMLPKIADVLGISLDTLFGRS | -0.269 |
| HMHLRYTYIYDNENRVTSKEASKWDSTQEAWVPYFKMNVSYVNNEVELSYARWNSKSNAYDSSIKKTI | -0.66 |
| HMHLTNIPKGFTPSFDTKQWIVEEFGERYNYDNELKIFINHYRASGTTKSDWQYAFRSWLLRAKKFT | -0.448 |
| HMHLTRYLHTMIRAANLDDTLDFFVEKLGLIEAYRYSNEAGRFTLVFLSAPDDLESAQSRQAPLVEITYN | -0.329 |
| HMHLYDMYNLTEKEISIIRLIANGLNNKEISQELFLSEGTIKNNITNILAKLELRDRTQLAIFAFKNKIVI | -0.647 |
| HMHMELHEKIRLARELNKWSQEEVAEKLEMSPSGYAKIERGETALNIPRLEQIAEIFNIDIWELVKA | -1.48 |
| HMHMHTADDFKQLAKHTSNGRLRTRYLALYHFKKGETRTQIAAYLGVARGSVNTWVSNYLAYGLEGLQS | -0.0479 |
| HMHMIDDYLARIGQLIRDARQHRGWTQVQLAEALGTSQSAVNRIERGNQNISLEMIARIGEALGSEIVSLG | -0.64 |
| HMHMKTIEWDSLVLIMYKDMKYLKRINEGQSFHGKGGMLNYADLIGKTYGIRFGQYEIFEPSLEDIVMYG | -0.569 |
| HMHMSKKLADSISALRKKNGLSQEQLAEKIGISRQTVSNWERGIATPDVETLNLISKLFDEDLSVMING | 0.043 |

| Sequence | soluble fraction (log2) |
| --- | --- |
| HMHNISQTGRRIAGMTQERWAEALDISVESVRLYESGRGMPSDDVATRMVEVSGAPVLGYWH | -1.08 |
| HMHNPSYDMSKDVDILVMKFRDYNNLTDDEARFLLDKAKDAYYNTGKEILSDNEYDTLEKSLGQE | -1.17 |
| HMHPEPDPVLFIDGKEYPYDKLSELDETRVQSMTILPKKSAVKKYGDKYANRSIMEITLKKEN | 0.22 |
| HMHPNPLTEQEIAVLKGIAQGLSNQEIADQLYLSNGTVRNYVTNILSKLDAGNRTEAANIAKESGW | -0.279 |
| HMHPSNQELTKVLAQGSELVLAQKYIEASQIFTRVIEIDQTWAEAWNKRATVFYLLQNYEASQKDIDEV | -0.135 |
| HMHQKELLNLSYKEAKRYILDDFERVFFTNLLRKTGGNVSRAAQLAQVHRKNLYVKLTELGIDPRQFG | -0.585 |
| HMHQLQLDSRSRLHMTGVIEVESFDEATIVLTTTRGTLIVRGENLHLQLLRLDGGEVLVDGTVDSLSYE | -1.22 |
| HMHQPPDLDDFEAFVGRVKPALLQALVATYGPVDGREATVDALSWAWEHWDRLADVDHPVGYLYRV | -0.189 |
| HMHRFAVLDTVREVAAGGVAATLSIGVGRDADSFDALFKNASMALEMALSRGGDQAVVKDRMNFQFYGG | -0.0192 |
| HMHRGEIVDGVIASVNPRSILIDIGGKSDALVHPRELERMSDEDLRSLKPGQDVSVYVIETDSDGTMLVSL | -0.86 |
| HMHSEISGGSKDPFRFMPHLGVEDIHAETDRLSGSGVEFIREPDQESWGGWVATFKDPDGNILQLLQL | -0.0468 |
| HMHSQVFTDPDKAKNAVVKLGAPLVVKADGLALGKGVIIAQNPQAAKEAVASVGSSGISSISVT | 0.22 |
| HMHTDDDGITEAFPHLRLLSLGEDILDLLEKSRFIRKLNNELVYYVVDFREQNSIDGRRYHPSIYHNL | -1.31 |
| HMHTGEVVNGKVIDVKEDQIILNVGFKSDGIITRSEYSNDNSLDLRTVVNVGDDMEAKVLKINDGEGQVLL | -0.343 |
| HMHTGLAELTDRERDVLRLIATGMTNAAIGSALAYSPSTIRADTVSIYRKLEVRGRAEAAAVAVAAGLTQP | 0.123 |
| HMHTPSGALLSAIEKEWGSFDNFKKEFTTAATSLFGSGWVWLAKDKKGKLYILSENNAGNPITKGYTPILG | -0.432 |
| HMHVLNEEYYNRIKAIQFTMNHDDGNSLNDIEKSDIILLGVSRTSKTPTSIYLANRGLRTSNIPLINEK | -0.316 |
| HMHVSLADQAYKTIRTNILNLTYPPGTQLTEAKLASDLNMSRSPVRTAIKMLQADGLLVSDYYKSMTVK | ≥ 0.43 |
| HMHVYSYPAAVKIKNAVGREMMVTLLGRSGTHVQFARQDGEEFVYPISSLDLAAQTLISKYPNDGIKN | 0.0689 |
| HMIAALEGKQAMVLDQVSLHHGQVKLGGEVWTARPLNDQDVYEPGDRVTVMRIDGATAVVWRN | -0.0548 |
| HMIAASPVGGIDRVLELLDARGQRVAWIEASGTEGGQRLRLGWIDAQGAERHGAWVPWSADDLLLYA | -0.547 |
| HMIAASQVLRDARQRSRLTQAELGRRADVPQSVISAYESARREPSVDMLARLVAAAGFDLRIGLTP | -0.377 |
